This note sets out measurements from a protein production outcome set (Wang et al. 2014).

This data set in a line: label from the status in PepcDB records.

For the sequence “MCASKRSFFMSNSKFNVRLLTEIAFMAALAFIISLIPNTVYGWIIVEIACIPILILSFRRGLTAGLVGGLIWGILSMITGHAYILTLSQAFLEYLIAPVSLGIAGLFRQKTASLKLVPVLLGTFVAVLLKYFFHFIAGIIFWSQYAWKGWGAVAYSLAVNGISAILTAIAAFVILIIFVKKFPKLFIYSNY”, the protein production result is “failed”.

In the case of “MCEGHTRNDPCERRHDPGARVRRKAGKIRSMILVFFSLCLGALIGALFRFPWYMLFLLAAIFWKRNKDISVVIFFTLLSASLYQIGTLPAGNYELVGYAERGRLKQVKVFQEEWKRIHPVRIETSEEGYVYAIGYFDGKAFHPSYLKKVEKPSLKTLKESFSGMANGTVLSVLFGEKNGDIYRSGLGHFFAVSGLHVGIAFSLYTTLLSFLTWRRTYQELTALLLLVPYVIAVGTPSVIRAYLTIFLWVAFKIFGFRTTPLHTTATVGSFMMIVDPTVVFTPSFLLSFFVTLCILESKNIFELTVKAYLSALPFLCLFFGGTNMSALVLSIPVSLLMIPVTWLAHLSFLLFLLGLKTSALIAAKITNIVSLPLNGFIKLANLLPEVPLPQYLYFILIFFPLLFLSPDIRDIFRKISGRAIL”, the protein production entry was “failed”.

As for “MCEKTAGDESGRRISRRAGNGEAGRLRSLSRLFDHFATAVTRWTGSPIAFSGACAAILAWASTGPLFGYSEVWQLVVNTGTTIVTFLMVFLIQQAQNKDSRALHVKLDELLVAVNGADVALAEAENLDDDRLLELADAYAARARRLVEHSTQRQRRDRGAEPEVGAARTRLARRPPGARARRHARLCWWQKQYARQRQGGDT”, the protein production result is reported as “failed”.

Turning to “MCGIVGANSTRNVTNILIEGLKKLEYRGYDSAGLAIIDDKNNIDICKEVGKVIELEKSVHNLANFKGDIGIAHTRWATHGKPSKNNSHPHASESFCIVHNGVIENFAELKKVLINDGYKFKSDTDTEVIAHLLQKEWRDNFSIVDNIKYIMAMLKGAYAVAIISQKFSDKIVAVRSGSPLVIGVGIDENFISSDALSLLPVTNKFSYLDEGDIAIISKDNVEVFDNNGAAKNLEVEEYNYSSSSASKDGYKHYMLKEIYEQPEAVSNTILASLADGEISLDSFDKRAKELFEKTKHICIVACGTSYNAGMTAKYWIEKYAKVPCSVEIASEIRYRDNVVVDGSLFVSISQSGETADTLESLRKSKKQNYVGSMCICNVPNSSLVRESDIAFMTKAGVEIGVASTKAFTTQLVALAIFTLVIAKLKNSLTDQQIAKYTEELKNIRALVMGALKLDTEIDQISEYFSDKEHTIFLGRGLYYPIAIEGALKLKEISYIHAEAYPSGELKHGPLALVDKNMPIVAVVPNDELLDKTLSNLQEVHARGGKLILFVDKAVKERVNFDNSIVLELDAGHDFSAPVVFTIPLQLLSYHVAIIKGTDVDQPRNLAKSVTVE”, the protein production entry is “not failed”.

In the case of “MCGVELDSLISQVKDLLPDLGEGFILACLEYYHYDPEQVINNILEERLAPTLSQLDRNLDREMN”, the protein production result is “not failed”.

In the case of “MCIGFCIDRLDKGFLYTCHSTICRLVAQNMKKSLIHIGDGLGLSLLIEPTGSKSWRFRYRFGGKPKMISFGAYPLVSLAEARKKRDEARKQVLDGINPSEHRKAQKLNLMSESENTFETIAREWHTMKSVCWSVGYASDIMEAFRNDIFPYVGKRSIAEVKPLELLNVMRKMEKRGALEKMKKVRQRCSEVFRYAIATGRAEYNPAADLSSALEVHQSHHFPFLKADEIPDFLRALEGYTGSKLVRIATKLLLITGVRTIELRAALWSEFDLGNAIWEIPEERMKKRRAHLVPLSTQALDLLNELKIMTGNYRYVFPGRNNPNKPMSEASINQVIKRIGFGGEVTGHGFRHMLSTILHEEGFDSSFIEIQLAHVDRNSIRGTYNHAQYLEKRRHMMQYYSDYVIGKDF”, the protein production entry is “failed”.

On to “MCILGTTAKSLRLASVYGLSLFILFIVPLYLWQSTAAKMIAEVDWLDVATEGALFVLGMCWLMVIVSVRPSGRVTNLLIAGLSSYCLGCYLDLLDEIFIVKTLPIYNWFEKMPTPVGLLVLTGGLWLWRDEQTVVNRQLQTREQFHREHQLTDSLTLLNDAKAFEHHLVKQLSQNQSVGLLMLDVDYFHRYNKNQGVEEGDKLLSQLALWLSSTLRNQDLVCRYAGDRFVILLRGAIPSFVSVMAEQLQHGIKAFDCSATVVWTLPSPKMLPLQNSTCTAKEEAIALLQVLNQKMSQQKELRVSEAIAPSPFNTLDKSAASELN”, for which the protein production result was “failed”.

As for “MCKHILGKGYVDGVIEADEVFFTESFKGTKPSNMPRRSRKIGKQVKKSGISKEQVCITTAIDRQGNLIMELACKGRITSKELEKLYDGHISNESILCTDSRKSYIQFANDLSLEHKRIKRGKHKEGLYHIQHINVLHSNLRKWMNRFNGAATKYISNYIKWFKWLQIFDTHKEIIKAKNFIVQSNVAHAYIKVKDLKYREPICV”, the protein production result was “failed”.

In the case of “MCLCQLSRRKKRPDDSDTQSAPGAVQGTGADYSGAVTASAASTVTHPTVTRHVTASGARIYTIGIRAFEHLGVNVFLVVVGDPQQPSYTALIDAGSSFDFSQQGLLDGLKRVREEYGEAWSWETLSRLVITHPHPDHVGGLPFVRTLTAAPVAAHALAAAVIEEPGRRAEAFKLGADAMLARLGVPEGEYAARLRRRAGNLMSPSGVKVETALQDGDTLDGLFTVLHTPGHDGAQICLRLDEVLLSADHLLPHNSPPLMPGWMLPGSGLGPYLAALDHIETLEGVDLALGSHDEPMPDWRGRVDFLRRRYDDKLRGVLGAASEPQTIYALTCAVNPRLRAAQALLLLDQTAALVEELVVRGELHETREQAADGERWTYQRA”, the protein production entry was “failed”.

Regarding “MCLDACLTPDLADRDPVGRACDRAYVIDRPVFRSAMGNCRPSHFRGNGTHAAMNGESCAQRGKRTHKMQESEFFQLSGTTAVLLLVAFYGATFLMSLMIGQKKENVDGYMVSNSSVGFGLSAASMIATWIWAASFYASATSGFKYGLSGPIHYGFWGALMILFIYPFGKRFRQLAPKAHTLAEVIHARHGASSQMIMAVSNIVGSCISLMVNFTAAGALVSVLSPLSFIQGVLIAGLGVLSYTLWSGFRASVMTDFAQLVAMILAAVIIIPLIFFNAGGPDMLQANMWRLSSEQADFFSTTAILEQGAPYFVAVLAYAIGNQTIAQRLFAVREDLIKPTFLTATIGYGAVVIGLGMLGLLALFVGLEPVNGNMNNIIPQMASTYLPPVGIALFFILVVGSLSSTADSDLAALSAIVMTDIYAKNLAGGRPDPRRMLWWGRATMIVATMVGVIFASLRLDILVMLVFVGALWGAIVFPVIASFYWDRVSNSAFFWSVISAVVLFTIVRFELVPIEGAVAVFYEICAAIGGGVVIGLMSFAFFGRVTALTLGTLATLFLLPCFVGTLREYIVLLGSLTAYGVSTVVCVALSLRNQERFDFSLLAERVTSFHYEKARMMGAKPAAPAAQPQPARG”, the protein production entry is “failed”.

Consider “MCLSIPSQVVAVDNERQSVTVDTLGVRRDVSSHLMTEPLAIGDYVLIHIGFVMNKIDRNDALQSLELYQEIVSKLENETTH”, for which the protein production entry was “not failed”.

As for “MCRSIRLTAMAAFLVIMGGAACSGKPVLPDLTLEGGDRSYSELITAQQHSFSIHTPSDAPLENSSIRIEVNEGESLTPRLRSSGSVDCSSLASVVAGVVAPGMTAEEKALALWRFVMDSCYHGRWGTSLDGLEHLNVYGYGYCGTYAAVLESLWWTAGLTARHVNIGNHAATEVYYNNDWHYIDADTRTYFLLKDNRTIASLDELNDNVELWTMLRRGSSRKAGKKYYYMTMHPNGHGRSPVYTNDFTMAKGDVLTLDWQSRGKWCLNRGQEGGKEPAGEPPFYGNGLFTFHRDFKDRSQSRSGLVSSTNIDWQDAAAGYLHPQHAKQEASLVYRVKTPYFIPETTLSGSFFRKGTGDSAAIDISTDNGKRWVSLWRADATGTVKASVVTAQTQQVTTDVPWKYSYLMRLRMRAGKSPRDVGAYHLDSASVLAYNPRCLPALRPGDNRITFSDGSQARRTVRVTYNWHDDLPITLSKETPFEGEEITVSARVTNRGAAEAHNVPVAVYLGNPAQGGVEIGRDTISRIPVGGTGLARVQWKATRKLAGRAANPGVPVYAVVDPDNRVAESDKANNVFSRIVKVLNPPDVRIPSESFIRFERAKDHSQSLAVVASVRNFSNSADYGLFLDDHGTGEAVEVTVYDGNPAKGGKVIGRETISRLLPLEHRNVSVKWDIAQLKGVHTVYVQVHPPANLTRAPGKRAPAAMAVPVDLDAYRSCKGI”, the protein production result is “failed”.

As to “MCRVGLRAMVQERPVRVERRLSAILAADVAGYSRLMHNDEEATHAKLSALLTEAVQPAIAEHGGHIVKNTGDGFLAEFPSAVEAVRAAMQFQTSIHELTIGDVEDRRIAFRVGINIGDVIVEPHDIFGDGVNIAARLEGVAEPGGICISSSAYDQVQGKVGVEFGDLGEQNLKNIARPVRVYRMRPCNAATRPQASLLHRDTPQIGWFPNMFGGFPIRLWPALRARRARMALVIALLFVLSGGVAYWYMHQGEPQPLNHRLSIVVLPFTNLSNASEQEYFAEGITDDLSADLSRIEDSFVIAPSTARAYKNVDPKRVGRELGVRYILDGSLRRTDSLVRINARLIDARTGAEIWSERVDGDWSKSMQLQDIITGRLARRLDLELTNQESRDAEVMRPNNPDAVDLTMRGWAVLNQPYSREQLSQSRALFERALQIDPGFPKALVGLAETLAMEVNYRWTDAPADQLRRAESAVGQVLSKFPSDAMAHFVRGEIQRASGRNVEAAVGEYEAAIAINPSLAPAHGALGAAKIRVGRSAEAFAPLQMAIQLSPRDPLLSTWYFYIGHAHSHLGQYEGAIDWCGRSIAVQPLWIAYADLAAAHALTGHEREAYAAVAELRRLRPSYTVTEWLQDGKGWSDNAVFLAEFQRIADGLRKAGLPE”, the protein production result is given as “failed”.

“MCSFFKKKLCIFFFILGNVVGWSSCVWGHLGSQYTIIGQSVISHSIDEIIQKQQQIIKILEQEIKNLQKDFANESANEYALAKVRLRARDINKRAIEAAFVLRNPLNDINVLLDQLKELQDEPKNLKERSHLIKKKAQINNMVLQFEEIFLATNKIVELSLSQSRELFKRTFKNRLEFSIPMLKYSVEKMKEASSDFLFLFSSWCKFVFHFKFLQLFLSFLVPLFVALGLSYFSRKVLAHVNCYFTKGNEEISYLQRLLVAFISILLPLLVCVVCVYLVFFLFHSFGMELGKLTTIFYTVGHQIILVFLINRLALVLLSLNMVHVRLFNITPFVAHQLVILLTFLGGILAFDAVLDSIYQVVSASLSLTIAKSFIAVFLFAILLFIISFVPLRFRRKSSQNEERETHFLPLYIRIPFIVLGLLLIVMDSLGYVGLAHFIMQQIVIGGAFLVLMYLGIKSAQVIGTKGQFMKTSVGHALMQWFHLEEKTMNKLGIVISVVLNLIVVILCAMPIAVQFGFSYSDLRRVLLQVMTGFQIGNISVSLISIVIGIIAFFACWFLNRRFICWLDGMVLVHGEFDSGVRNSIKTVISYAGVVVSALIGLSMAGLDLKNFALIAGGLSLGIGFGLQNIVQNFVSGLIILIGRPFKLGDYVEAGSVGGIVKRISVRATELETFQRKTIIIPNSSLINNNVSNWTRGSKMGRVDIPIVVSPNVAPERVVEILLEIASTTEGVLKNPAPQVSFTAFDSKKFSFSLAVYVPNITSSFKVTNALHFVLYKRFVQEGILEC”: the protein production result was “failed”.
